The values below are quoted from earlier work in paper PMC2875293.

This data set addresses Sep15 (Homo sapiens) (UniProt O60613).

pKd: −log10 of the molar value.

Chain of Sep15 (Homo sapiens) (O60613 32-165): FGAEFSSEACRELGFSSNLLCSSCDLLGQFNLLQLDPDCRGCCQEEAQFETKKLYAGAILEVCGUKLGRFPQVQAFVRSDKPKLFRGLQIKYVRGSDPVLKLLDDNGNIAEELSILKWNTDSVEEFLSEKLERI
Chain of GT1 (UDP-glucose:glycoprotein glucosyltransferase 1) (Q9NYU2 43-1555): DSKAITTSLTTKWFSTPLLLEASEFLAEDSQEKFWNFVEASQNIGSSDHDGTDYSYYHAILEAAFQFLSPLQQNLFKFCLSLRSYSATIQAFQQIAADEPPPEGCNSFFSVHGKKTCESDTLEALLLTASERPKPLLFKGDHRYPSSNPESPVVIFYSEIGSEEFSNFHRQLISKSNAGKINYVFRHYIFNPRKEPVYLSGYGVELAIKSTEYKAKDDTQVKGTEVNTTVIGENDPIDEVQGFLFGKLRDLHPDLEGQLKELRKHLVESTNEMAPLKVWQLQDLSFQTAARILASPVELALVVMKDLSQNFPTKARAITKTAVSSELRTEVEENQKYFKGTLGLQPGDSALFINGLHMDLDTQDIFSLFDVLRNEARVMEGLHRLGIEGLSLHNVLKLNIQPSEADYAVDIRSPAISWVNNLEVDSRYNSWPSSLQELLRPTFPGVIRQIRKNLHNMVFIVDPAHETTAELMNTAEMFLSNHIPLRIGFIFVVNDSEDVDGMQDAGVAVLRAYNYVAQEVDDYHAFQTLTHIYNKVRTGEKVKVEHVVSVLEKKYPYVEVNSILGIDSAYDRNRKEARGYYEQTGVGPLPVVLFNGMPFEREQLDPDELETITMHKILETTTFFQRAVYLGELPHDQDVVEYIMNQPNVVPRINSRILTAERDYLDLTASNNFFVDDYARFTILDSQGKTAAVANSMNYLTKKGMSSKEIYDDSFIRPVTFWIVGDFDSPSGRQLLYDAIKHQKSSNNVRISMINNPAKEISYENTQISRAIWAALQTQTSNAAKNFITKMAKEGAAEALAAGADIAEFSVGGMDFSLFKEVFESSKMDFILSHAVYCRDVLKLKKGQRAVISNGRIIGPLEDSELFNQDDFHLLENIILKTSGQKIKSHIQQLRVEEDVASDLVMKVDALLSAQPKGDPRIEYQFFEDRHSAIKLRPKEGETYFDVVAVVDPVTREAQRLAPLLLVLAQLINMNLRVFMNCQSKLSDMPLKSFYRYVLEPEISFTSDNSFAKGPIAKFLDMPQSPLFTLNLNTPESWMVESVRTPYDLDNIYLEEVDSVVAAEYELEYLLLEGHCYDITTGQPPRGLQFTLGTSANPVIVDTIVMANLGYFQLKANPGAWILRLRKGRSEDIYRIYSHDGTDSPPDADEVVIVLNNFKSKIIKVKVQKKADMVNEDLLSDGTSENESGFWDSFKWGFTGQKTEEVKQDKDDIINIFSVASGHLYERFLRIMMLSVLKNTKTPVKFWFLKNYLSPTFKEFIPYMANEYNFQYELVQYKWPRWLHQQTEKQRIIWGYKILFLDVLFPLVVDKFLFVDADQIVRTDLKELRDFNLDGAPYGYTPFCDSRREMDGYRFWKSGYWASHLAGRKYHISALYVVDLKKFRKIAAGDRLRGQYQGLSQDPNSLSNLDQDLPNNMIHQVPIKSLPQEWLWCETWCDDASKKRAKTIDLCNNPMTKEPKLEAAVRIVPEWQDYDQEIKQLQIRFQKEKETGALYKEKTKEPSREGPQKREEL

What is called pKd is the negative decadic logarithm of the Kd, by convention in mol/L. In the case of “GT1 (UDP-glucose:glycoprotein glucosyltransferase 1) (from UniProt Q9NYU2)”, the pKd is above 7.70.
